This is an account of results in the nanobody polyreactivity screen of Harvey et al. (2022).

This data set is described as follows: yeast display, Sf9 membrane polyspecificity reagent, FACS + sequencing; frameworks hold sequencing errors. A digest of the protocol: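 Nanobodies came from a synthetic yeast display library in Saccharomyces cerevisiae BJ5465, induced with galactose for 36–48 hours and stained for 1 hour at 4 °C with 10% biotinylated, detergent-solubilized Sf9 membrane reagent. Cells were enriched on streptavidin microbeads and then FACS-sorted, with low and high (top ~1%) gates set on anti-HA fluorescence for expression and streptavidin fluorescence for reagent binding. Each polyreactivity label reflects the gate a clone came from. Genes were amplified by colony PCR, sequenced by MiSeq 2 × 250 and filtered by CDR length.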
“QVQLVASGGGLVQSGGSLRLSCASSGSTFFRYAMGWYRHAPGKERELVAAISWSGGPTYYADSVKGRFTISRDNAKNTVFLQMNSLKPQDTAVYYCNAVRQGHILDYWGQGSQVTVSS”: the “polyreactivity (PSR sort gate)” value is recorded as “low polyreactivity”.
Under “QVQLVESGGGLVQAGGSLRLSCAASGSIFAAYAMGWYRQAPGKERELVAAIDRGGSTDYADSVKGRFTISRDNAKNTVYLQMNSLKPEDTAVYYCAKGYDYYVRRYYYWGQGTQVTVSS” stands “high polyreactivity”.
In the case of “QVQLVESCGGLVQAGGSLRLSCAASGYIFVYNAMGWYRQAHGKERELVAAISTTGGRTYYADSVKGRFTISRDNAKNTVYLQMNSLKPEDTAVYYCAARAYYARSLFGYWGQGTQVNVSS” it was “high polyreactivity”.
In the case of “QVQLVESGGGLVQAGGSLRLSCAASGGIFFINAMGWYRQAPGKERELVAAISISDGSTYYADSVKGRFTISRDNAKNTVYLQMNSLKPEDTAVYYCAAEGFDWDSPEMEYWGQGTQVTGSS” it was “low polyreactivity”; in that of “QVQLVESGGGLVQAGGSLRLSCAASGSTFYRYVMGWYRQAPGKERELVAAITWRGGTTYYADSVKGRFTISRDNAKNTVYLQMNRLNPEDTAVYYCNADRYLGVSEYKTYEYEYWGQGTQVTVSS”, “low polyreactivity”; in that of “QVQLVESGGGVGQAGGSLRLSCAASGSNFKYYAMGWYRPAPGKERELVAVITSGGSTYYADSVKGRFTISRDNAKNTVYLQMNSLKPEDTAVYDCAAGVRAYNWGEYDYWGQGTQVTVSS”, “low polyreactivity”.
For the sequence “QVQLVESGGGLVQAGGSLRLSCAASGFIFRRYTMGWYTQAPGKERELVATITRSVNTDYADSVKGRFTISRDNAKNTVYLQMNSLKPEDTAVYYCAARKYYYFPVAYDYWGQGTQVTVSS”, the “polyreactivity (PSR sort gate)” value is “high polyreactivity”.
As to “HVQLVESGGGLVQAGGSLRLSCAASGSIFDDYAMGWYRQAPGKERELVAAISSSGTSTYYADSVKGRFTISRDNAKNTVYLQMNSLKPEDTAVYYCAARSAILKSGYLMDYWGQGTQVTVSS”, the “polyreactivity (PSR sort gate)” value was “low polyreactivity”.
In the case of “QVQLVESVGGLVQAGGSLRLICAASGSIFSPYAMGWYRQAPGKERELVAAINFNGGTTYYADSVKGRFTISRDNAKNTVDLQMNSLKPEDTAVYYCAADEVPGFGYPPYPWFDYWGQGTQVTVSS” it was “low polyreactivity”; in that of “QVQLVESGGGLVQAGGSLRLSCAASGSIFFIYAMGWYRQAPGKERELVAAISWSDDSTYYADSVKGRFTISRDNAKNTVYLQMNSLKPEDTAVYYCAARYYIGYGHRTYGYDYWGQGTQVTVSS”, “high polyreactivity”.
Under “QVQLVESGVGLVQAGGSLRLSCAASGITFSYYAMGWYRQAPGKERELVAAISGSGTSTYYADSVKGRFTISRDNAKNTVYLQMNSLKPEDTAVYYCAAGPPRKPGYYYWGQGTQVTVSS” stands “high polyreactivity”; under “QVQLVESGGGLVQAGGSLRLSCAASGSTFKTYAMGWYRQAPGKEREFVAAINWRGTSTYYADSVKGRFTISRDNAKNTVYLQMNSLKPEDTAVYYCAAQRYGYGYQWYDHWGQGTQVTVSS”, “high polyreactivity”; under “QVQLVESGGGLVQAGGSLRLSCAASGFTFWLYAMGWYRQAPGKEREFVAAISTSGGSTYADSVKGRFTISRDNAKNTVYLQMNSLKPEDTAVYYCNADPTTTTYRHQYNYWGQGTQVTVSS”, “low polyreactivity”.
In the case of “QVQLVESGGGLVQAGGSLRLSCAASGRIFSRYAMGWYRQAPGKERELVAGITRSGTTTYYADSVKGRFTISRDNAKNTVYLQMNSLKPEDTAVYYCAAPPIRPNLYDYWGQGTQVTVSS” it was “high polyreactivity”.
In the case of “QVQLVESGGGLVQAGGSLRLSCAASGFTFYIYAMGWYRQAPGKERELVAAITTTTGSTYYADSVKGRFTISRDNAKNTVYLQMNSLKPEDTAVYYCAAEGHYYYFGYYYWGQGTQVTVSS”, the “polyreactivity (PSR sort gate)” value is on record as “low polyreactivity”.
In the case of “QVQLVESGGGLVNAGGSLRLSCAASGSTFYLYHMGWYRQAPGKEREFFARITWSGGSTYYADSVKGRFTLSRDNAKNTVYLQMNSLKPEDTAVYYCNKVYGQRNSYPDYDYWGQGSQVTVSS” it was “high polyreactivity”; in that of “QVQLVESGGGLVQAGGSLRLSCAASGIIFSYYAMGWYRQAPGKERELVAAISSGGSTNYADSVKGRFTISRDNAKNTVYLQMNSLKPEDTAVYYCAPLYRDYDWIFEYWGQGTQVTVSS”, “low polyreactivity”; in that of “QVQLVESGGGLDQAGGSLRLSCAASGSIFTQYAMGWYRQAPGKERELVAAITSGGSTYADSVKGRFTISRDNAKNTVYLQMNSLKPEDTAVYYCATPYSYRGVTFNYWGQGTLVTVSS”, “low polyreactivity”.
As for “QVQLVESGGGFVEAGGSLRLSCAASGSIFRSYAMGWYRQAPGKERELVAAISSGDSTNYADTVKRRFTISRDNAQNTGYLQMNSLKPEDTADYYCAADQVQYTGYTEYDWGQGTQVTVSS”, the “polyreactivity (PSR sort gate)” value was “low polyreactivity”.
On to “QVQLVESGGGLVQAGGSLRLSCAASGRTFRWNAMGLYRQAPGKERELVADITSGGSTYYADSVKGRFTISSDNAKNTVYLQMNSLKPEDTAVYYCKAYYYYQFPAPASKYDYWGQGTQVTVSS”, for which the “polyreactivity (PSR sort gate)” value is on record as “high polyreactivity”.
As to “QVQLVESGGGLVQAGGSLRLSCAASGSTFDAYAMGLYRQAPGKERELVAAITNAGSTNYADSVKGRFTISRDNAKNTVYLQMNSLKPEDTAVYYCATDWYHRYLDGRYDYWGQGTQVTVSS”, the “polyreactivity (PSR sort gate)” value is “low polyreactivity”.
Under “QVQLVESGGGIVQAGGSLRLSCAASGFTFGLYAMGWYRQAPGKERELVAVISSSGGSTYYADSVKGRFTISRDNAKNTVYLQMNSLKPEDTAVYYCAAEWHDYKFDVTYDYWGQVTQVTVSS” stands “low polyreactivity”; under “QVQLVESGGGLVQAGGSLRLSCAASGSTFVYNTMGWYRQAPGKERELVAAISKSGTNTLYADSVKGRFTISRDNAKNTVYLQMNSLKPEDTAVYYCAVRSVPRWFTELDYWGQGTQVTVSS”, “low polyreactivity”; under “QVQLVESGGGLVQAGGSLRLSCAASGNIFAIYAMGWYRPAPGKEREFVAAIDWSVASTYYADSVKGRFTISRDNAKNTVYLKMNSLKPEDTAVYYCAAELYCLKYGYYLSYDYWGQGTQVTVSS”, “high polyreactivity”.
Consider “QVQVVESGGGLVHAGGSHRLSCAASGSIFPPYSMGWYRQAPGKEREFVAAISYSGGSTYYADSVKGRFTISRDNGKHTVYFQMNSLKPEDTAVYYCGADRYGFYLESYYWGQGTQGTVSS”, for which the “polyreactivity (PSR sort gate)” value was “low polyreactivity”.
“QVQLVESGGGLVQAGGSLRLSCAASGSTFSYNDMGWYRQAPGKESELVADINVSVGRTYYADSVKGRFTISRDNAKNTVYLQMNSLTPEDTAVYYCNATLYTITSYVYAYDYWGQGTQVTVSS”: the “polyreactivity (PSR sort gate)” value was “low polyreactivity”.
Under “QVQLVESGGGLVQAGGSLRLSCDASGRIFGLYDMGWYRQAPGKERELVAAISRGGGSTYYADSVKGRFTISRDNAKNTVYLQMNSLKPEDTAVYYCATGLGYFSRLDYWGQGTQVTVSS” stands “low polyreactivity”; under “QVQLVESGGGLVQAGGSLRLSCAASGITFRRYAMGWYRPAPGKERELVAVISVSGGRTHYADSVKGRFTISRDNAKNTVYLQMNSLKPEDTAVYYCAAQFSYRYYTDEVGYWGQGTQVTVSS”, “high polyreactivity”.
Under “QVQLVESGGGLVQAGGSLRLSCAASGRTFGNYAMGWSRQAPGKERELVAAITFRGGSTYYADSVKGRFTISRDNAKNTVYLQMNSLKPEDTAVYYCNAERYVGHTYFQFDYWGQGTQVTVSS” stands “high polyreactivity”; under “QVQLVESGGGLVQAGGSLRLSCAASGSTFGGYPMGRYRQAPGKERELGAAITWSGSSTTYADSVKGRFTISRDNAKKTVYLQMNSLKPEETAVYYCAAEAQDSTYPQYDYWGQGTLVTVSS”, “low polyreactivity”.
In the case of “QVQLVESGGGLVQAGGTLRLSCAASGFTLSVYAMGWYIQAPGKDRELVAAITRSTGSTYYADSVKGRFTISRDNAKNTVYLQMNSLKPEDTAVYYCNAGHFAHHHGYYRSKYDYWGQGTQVTVSS” it was “low polyreactivity”; in that of “QVQLVESGGGLVQAGGRLRLSCAASGSTFSSNAMGWYRQAPGKERELVAAITTSGGSTYYADSVKGRFTISRDNAKTTVYLQMNSLKPEDTAVYYCAADLVHAYQWSIFLYGYWGQGTQVTVSS”, “low polyreactivity”.
In the case of “QVQLVESGGGLVQAGGSLRLSCAASGRTFWYYTMGWYRQAPGKEWELVAAIRASGGGTYADSVKGLFTISRDNAKNTVYLQMNSLNPEDTAVYYCAVRNVYGWYGSRDYWGQGTQVTVSS”, the “polyreactivity (PSR sort gate)” value is “high polyreactivity”.
Under “QVHLVESGGGLVQAGGSLRLSCAASGRTFQWYAMGWYRQAPGKERELVAAIRYSAGSTYYADSVKGRFTISRDNAKNTVYLQMNSLKPEDTAVYYCAAEPYPYGPYYFLWLRYDYWGQGTHVTVSS” stands “low polyreactivity”; under “QVQLEETGGGLVQAGASLRISCAASGSIMGQNGMGWYRHAPGKEREFVAGIGYGTTTNYADSVKGRFTTSRDNAKNTVYLQMISMKPEDTAVYYCAAYQGNGYEFYYWGQGTQVTVRS”, “low polyreactivity”; under “QVQLVESGGGLVQAGGSLRLICAASGFTYSWYAMGWYRQAPGKERELVAAISWDGDSTYYADSVKGRFTISRDIAKNSVYLQMISLKPEDTAVYYCAADFSYYWVGYDYWGQGTQVTVSS”, “high polyreactivity”.
In the case of “QVQLVESGGGLVQAGGSLRLSCAASGRISIIYAMGWYRQAPGKERELVARISGSGGSTNYADSVKGRFTISRDNAKNTVYLQMKSLKPEDTAVYYCAAVPWRIHKYYYWGQCTQVTVSS” it was “high polyreactivity”; in that of “QVHLVESGGALVQAGGSLRLSCAASAYTFSYYAMGWYRQAPGKEMELVAAITSTGSTYYADSVKGRFTISRDNAKNTVYLQMNSLKPEDTAVYYCNVDDATVGPVDYWGQGTQVTVSS”, “low polyreactivity”; in that of “QVQHEESGGGLVQAGGSLRLSCAASGSIIRYYPMGWYRQATGKQRELVAAISRDDSRTYYADSVRGRFTISLDNAKNTVYLQMNSLKPEDTAVYYCAADSSRYTRYLYYYWGQGTQVTVSS”, “high polyreactivity”.
In the case of “QGQLVESGGRLVQAGGSLRLSCAASGFIFDAYAMGWYRQAPWKERELVAAIDYSGGNTYYADSVTGRFTISRDNAKNTVYLQMNSLTPEDTAVYYCNADYAGSFWSREYDYWGQGTQVTVSS” it was “low polyreactivity”.
